Earlier results in paper PMC12990809.

Columns and labels:
Test in all cases: pulldown
Conditions in all cases: 20 nM protein, 1.5 uM RNA pool; 20 mM HEPES pH 7.8, 70 mM KCl, 10 mM NaCl, 10% glycerol, 2 mM DTT, 0.1 ug/uL BSA; 30 min, 4 C (protocol of this paper; not …); cited from earlier work
[1] = target: T1, e_gw1.81.40.1 (Physcomitrella patens) (UniProt A0A2K1J988)
T1 sequence: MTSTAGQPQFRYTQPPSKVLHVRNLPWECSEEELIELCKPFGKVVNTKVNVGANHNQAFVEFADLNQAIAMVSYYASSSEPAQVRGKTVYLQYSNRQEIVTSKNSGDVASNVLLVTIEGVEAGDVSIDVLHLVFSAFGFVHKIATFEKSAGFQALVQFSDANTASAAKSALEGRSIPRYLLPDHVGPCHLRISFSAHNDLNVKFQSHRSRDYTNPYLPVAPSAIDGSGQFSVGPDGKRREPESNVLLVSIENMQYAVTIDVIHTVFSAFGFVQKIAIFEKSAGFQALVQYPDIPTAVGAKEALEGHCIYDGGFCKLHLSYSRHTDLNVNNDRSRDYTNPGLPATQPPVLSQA

[2] = target: T2, Thaps1841 (Thalassiosira pseudonana) (UniProt B8BS34)
T2 sequence: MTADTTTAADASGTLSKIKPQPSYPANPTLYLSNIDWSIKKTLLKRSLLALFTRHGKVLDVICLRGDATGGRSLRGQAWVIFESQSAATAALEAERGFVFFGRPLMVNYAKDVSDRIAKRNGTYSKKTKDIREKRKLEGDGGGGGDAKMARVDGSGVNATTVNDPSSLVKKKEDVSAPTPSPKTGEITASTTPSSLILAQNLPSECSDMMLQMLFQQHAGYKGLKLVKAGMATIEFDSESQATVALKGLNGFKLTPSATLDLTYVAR

[3] = target: T3, NCU08034 (Neurospora crassa) (UniProt Q7SAK7)
T3 sequence: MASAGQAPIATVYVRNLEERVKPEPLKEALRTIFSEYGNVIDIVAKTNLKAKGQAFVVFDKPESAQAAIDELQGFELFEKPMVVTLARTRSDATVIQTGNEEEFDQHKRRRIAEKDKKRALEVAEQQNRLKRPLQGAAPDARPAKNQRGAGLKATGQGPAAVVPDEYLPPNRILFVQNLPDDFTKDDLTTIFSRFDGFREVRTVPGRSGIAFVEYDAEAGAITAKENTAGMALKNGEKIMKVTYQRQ

[4] = target: T4, RO3G_00049 (Rhizopus oryzae) (UniProt I1BGL5)
T4 sequence: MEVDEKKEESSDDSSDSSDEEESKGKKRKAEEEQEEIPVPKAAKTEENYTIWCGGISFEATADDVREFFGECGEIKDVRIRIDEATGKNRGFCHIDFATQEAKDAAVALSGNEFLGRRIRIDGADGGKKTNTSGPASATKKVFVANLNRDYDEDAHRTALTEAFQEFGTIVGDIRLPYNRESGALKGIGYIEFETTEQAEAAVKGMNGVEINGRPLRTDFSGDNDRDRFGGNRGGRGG

sf3b4 (Danio rerio) = target: T5, sf3b4 (Danio rerio) (UniProt A0ACM8Q308)
T5 sequence: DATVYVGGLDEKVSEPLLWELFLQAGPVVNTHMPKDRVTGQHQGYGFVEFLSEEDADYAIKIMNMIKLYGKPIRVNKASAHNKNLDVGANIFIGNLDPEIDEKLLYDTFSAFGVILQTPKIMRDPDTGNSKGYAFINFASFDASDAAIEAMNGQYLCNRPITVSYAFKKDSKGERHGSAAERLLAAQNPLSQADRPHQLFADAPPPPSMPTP

[5] = target: T6, TVAG_302220 (Trichomonas vaginalis) (UniProt A2EGP7)
T6 sequence: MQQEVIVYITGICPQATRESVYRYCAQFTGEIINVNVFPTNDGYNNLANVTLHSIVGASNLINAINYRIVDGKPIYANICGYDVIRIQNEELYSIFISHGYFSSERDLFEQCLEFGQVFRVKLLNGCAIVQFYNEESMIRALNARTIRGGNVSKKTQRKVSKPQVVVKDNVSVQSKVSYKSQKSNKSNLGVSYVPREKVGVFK

[6] = target: T7, Tb927.3.3930 N185S (Trypanosoma brucei) (UniProt Q57WC9)
T7 sequence: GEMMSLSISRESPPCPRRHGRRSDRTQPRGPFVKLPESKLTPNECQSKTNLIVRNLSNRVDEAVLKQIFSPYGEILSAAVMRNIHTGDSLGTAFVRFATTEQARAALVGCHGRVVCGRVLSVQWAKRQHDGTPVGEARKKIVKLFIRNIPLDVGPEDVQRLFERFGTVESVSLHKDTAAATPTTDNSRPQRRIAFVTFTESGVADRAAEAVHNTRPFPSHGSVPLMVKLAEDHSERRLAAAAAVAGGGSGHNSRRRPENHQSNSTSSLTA

[7] = target: T8, LmjF.18.0180 (Leishmania major) (UniProt Q4QE24)
T8 sequence: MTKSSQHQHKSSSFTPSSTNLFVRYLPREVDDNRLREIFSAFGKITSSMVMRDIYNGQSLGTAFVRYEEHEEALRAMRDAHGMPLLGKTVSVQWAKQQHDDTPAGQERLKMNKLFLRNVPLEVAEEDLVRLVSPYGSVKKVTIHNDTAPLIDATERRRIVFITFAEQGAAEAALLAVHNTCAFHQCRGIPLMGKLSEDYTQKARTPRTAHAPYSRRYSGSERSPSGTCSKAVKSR

[8] = target: T9, PFI1695c (Plasmodium falciparum) (UniProt Q8I2G9)
T9 sequence: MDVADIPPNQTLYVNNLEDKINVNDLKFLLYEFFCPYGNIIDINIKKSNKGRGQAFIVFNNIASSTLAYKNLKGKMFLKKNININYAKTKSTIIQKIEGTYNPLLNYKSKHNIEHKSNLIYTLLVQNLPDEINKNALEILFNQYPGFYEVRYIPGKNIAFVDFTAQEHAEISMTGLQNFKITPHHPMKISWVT

Pcbp3 (Mus musculus) = Pcbp3 (Mus musculus) (UniProt P57722)
[9] = target: T10, Tb09.211.0560 (Trypanosoma brucei) (UniProt Q38EA2)
T10 sequence: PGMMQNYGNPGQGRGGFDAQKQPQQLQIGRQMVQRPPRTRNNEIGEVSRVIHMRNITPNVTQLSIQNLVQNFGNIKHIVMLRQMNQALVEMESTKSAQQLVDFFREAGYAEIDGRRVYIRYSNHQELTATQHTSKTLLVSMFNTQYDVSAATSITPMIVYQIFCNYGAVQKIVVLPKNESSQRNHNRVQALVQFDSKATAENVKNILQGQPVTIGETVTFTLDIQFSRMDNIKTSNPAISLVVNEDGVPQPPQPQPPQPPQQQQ

[10] = target: T11, LmjF.32.0750 (Leishmania major) (UniProt Q4Q5K7)
T11 sequence: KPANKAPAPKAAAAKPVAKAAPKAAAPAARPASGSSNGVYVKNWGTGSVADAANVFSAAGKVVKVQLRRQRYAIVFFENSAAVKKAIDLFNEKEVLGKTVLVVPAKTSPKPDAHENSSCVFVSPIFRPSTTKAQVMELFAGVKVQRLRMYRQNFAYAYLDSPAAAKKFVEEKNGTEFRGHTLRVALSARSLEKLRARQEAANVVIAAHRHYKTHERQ

[11] = target: T12, Tb927.8.6650 (Trypanosoma brucei) (UniProt Q57TU8)
T12 sequence: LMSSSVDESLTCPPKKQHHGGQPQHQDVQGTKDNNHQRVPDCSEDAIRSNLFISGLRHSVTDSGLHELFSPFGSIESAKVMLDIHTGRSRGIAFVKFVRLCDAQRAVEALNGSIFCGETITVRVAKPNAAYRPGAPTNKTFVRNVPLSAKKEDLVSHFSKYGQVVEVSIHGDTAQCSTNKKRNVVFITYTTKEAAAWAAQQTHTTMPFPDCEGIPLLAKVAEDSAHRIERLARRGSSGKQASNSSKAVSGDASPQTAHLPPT

[12] = target: T13, gw1.219.6.1 (Physcomitrella patens) (UniProt A0A2K1KNA4)
T13 sequence: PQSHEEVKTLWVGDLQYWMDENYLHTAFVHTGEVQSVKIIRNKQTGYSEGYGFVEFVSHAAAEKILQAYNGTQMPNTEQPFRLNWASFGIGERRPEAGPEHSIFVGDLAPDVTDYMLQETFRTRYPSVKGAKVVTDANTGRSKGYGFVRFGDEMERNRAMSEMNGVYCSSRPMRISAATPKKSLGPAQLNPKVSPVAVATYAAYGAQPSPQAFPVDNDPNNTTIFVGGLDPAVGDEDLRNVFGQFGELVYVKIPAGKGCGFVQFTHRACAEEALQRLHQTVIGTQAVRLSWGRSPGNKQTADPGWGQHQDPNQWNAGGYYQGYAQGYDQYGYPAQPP

[13] = target: T14, PF13_0315 (Plasmodium falciparum) (UniProt Q8IDB7)
T14 sequence: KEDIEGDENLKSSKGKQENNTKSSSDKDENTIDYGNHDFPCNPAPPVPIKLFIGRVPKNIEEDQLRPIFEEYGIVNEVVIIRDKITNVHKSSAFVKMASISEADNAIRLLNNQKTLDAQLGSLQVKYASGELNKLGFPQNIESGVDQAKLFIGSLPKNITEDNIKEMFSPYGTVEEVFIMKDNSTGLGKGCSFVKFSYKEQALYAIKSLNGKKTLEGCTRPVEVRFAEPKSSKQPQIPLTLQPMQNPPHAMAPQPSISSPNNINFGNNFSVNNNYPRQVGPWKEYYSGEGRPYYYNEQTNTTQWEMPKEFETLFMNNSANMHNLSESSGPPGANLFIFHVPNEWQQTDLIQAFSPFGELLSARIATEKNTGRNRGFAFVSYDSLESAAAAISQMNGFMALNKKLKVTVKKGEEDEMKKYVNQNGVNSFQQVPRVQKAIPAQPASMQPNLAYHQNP

[14] = target: T15, Tb927.7.5380 (Trypanosoma brucei) (UniProt Q582F3)
T15 sequence: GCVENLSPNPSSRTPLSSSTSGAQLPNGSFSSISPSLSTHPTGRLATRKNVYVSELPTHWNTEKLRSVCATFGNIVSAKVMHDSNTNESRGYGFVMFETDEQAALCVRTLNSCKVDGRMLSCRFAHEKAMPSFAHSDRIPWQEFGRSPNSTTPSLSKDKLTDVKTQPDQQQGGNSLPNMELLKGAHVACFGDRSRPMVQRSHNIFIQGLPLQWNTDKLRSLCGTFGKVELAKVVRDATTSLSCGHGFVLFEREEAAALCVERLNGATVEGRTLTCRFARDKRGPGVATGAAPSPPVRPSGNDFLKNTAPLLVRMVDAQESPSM

[15] = target: T16, PFI1435w (Plasmodium falciparum) (UniProt C0H570)
T16 sequence: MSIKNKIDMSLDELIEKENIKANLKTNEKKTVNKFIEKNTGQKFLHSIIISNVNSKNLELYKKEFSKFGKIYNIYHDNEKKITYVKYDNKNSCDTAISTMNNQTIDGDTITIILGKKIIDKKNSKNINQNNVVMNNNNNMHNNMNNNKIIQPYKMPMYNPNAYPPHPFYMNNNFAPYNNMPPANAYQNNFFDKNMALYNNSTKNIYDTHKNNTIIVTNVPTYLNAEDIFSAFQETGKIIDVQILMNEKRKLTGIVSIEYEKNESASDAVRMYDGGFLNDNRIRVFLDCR

[16] = target: T17, gw1.84.45.1 (Physcomitrella patens) (UniProt A0A2K1L0S1)
T17 sequence: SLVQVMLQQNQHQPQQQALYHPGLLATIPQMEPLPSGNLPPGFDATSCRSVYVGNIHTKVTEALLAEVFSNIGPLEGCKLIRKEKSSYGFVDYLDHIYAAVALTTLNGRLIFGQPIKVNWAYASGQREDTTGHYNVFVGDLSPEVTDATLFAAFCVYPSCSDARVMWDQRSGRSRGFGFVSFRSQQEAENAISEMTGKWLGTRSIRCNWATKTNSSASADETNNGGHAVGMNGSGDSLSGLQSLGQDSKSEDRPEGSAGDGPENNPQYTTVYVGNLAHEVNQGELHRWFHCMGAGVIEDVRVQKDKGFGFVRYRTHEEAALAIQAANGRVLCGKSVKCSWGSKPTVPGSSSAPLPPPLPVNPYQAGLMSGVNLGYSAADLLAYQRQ

Pcbp3 (Mus musculus), sequence (P57722 33-371): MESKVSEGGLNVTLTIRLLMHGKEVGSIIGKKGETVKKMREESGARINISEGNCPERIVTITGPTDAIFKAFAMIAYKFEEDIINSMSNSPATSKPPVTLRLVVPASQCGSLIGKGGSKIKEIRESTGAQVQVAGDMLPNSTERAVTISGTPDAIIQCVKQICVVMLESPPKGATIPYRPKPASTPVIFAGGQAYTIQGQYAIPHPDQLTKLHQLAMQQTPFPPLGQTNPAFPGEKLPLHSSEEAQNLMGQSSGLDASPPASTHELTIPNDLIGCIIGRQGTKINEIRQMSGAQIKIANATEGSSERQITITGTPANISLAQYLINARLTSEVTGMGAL

## AACCUUU [RNAcompete motif RNCMPT00206]
[1]
  binding signal (z-score (mean of top ten 7-mers)): 6.39

## ACACGC [RNAcompete motif RNCMPT00225]
[2]
  binding signal (z-score (mean of top ten 7-mers)): 6.33

## AGCACA [RNAcompete motif RNCMPT00209]
[3]
  binding signal (z-score (mean of top ten 7-mers)): 11.1

## AGGGGAA [RNAcompete motif RNCMPT00205]
[4]
  binding signal (z-score (mean of top ten 7-mers)): 9.5

## CAAAAG [RNAcompete motif RNCMPT00224]
sf3b4 (Danio rerio)
  binding signal (z-score (mean of top ten 7-mers)): 28.4

## CAAUAA [RNAcompete motif RNCMPT00226]
[5]
  binding signal (z-score (mean of top ten 7-mers)): 12.9

## CAUUGU [RNAcompete motif RNCMPT00216]
[6]
  binding signal (z-score (mean of top ten 7-mers)): 18.7

## CAUUUU [RNAcompete motif RNCMPT00212]
[7]
  binding signal (z-score (mean of top ten 7-mers)): 30.2

## CCUGCAC [RNAcompete motif RNCMPT00203]
[8]
  binding signal (z-score (mean of top ten 7-mers)): 9.07

## CUUUCC [RNAcompete motif RNCMPT00215]
Pcbp3 (Mus musculus)
  binding signal (z-score (mean of top ten 7-mers)): 6.23

## CUUUCU [RNAcompete motif RNCMPT00220]
[9]
  binding signal (z-score (mean of top ten 7-mers)): 6.05

## UACACG [RNAcompete motif RNCMPT00223]
[10]
  binding signal (z-score (mean of top ten 7-mers)): 10.4

## UAUACU [RNAcompete motif RNCMPT00219]
[11]
  binding signal (z-score (mean of top ten 7-mers)): 15.8

## UGUUUUU [RNAcompete motif RNCMPT00229]
[12]
  binding signal (z-score (mean of top ten 7-mers)): 6.94

## UUACAU [RNAcompete motif RNCMPT00200]
[13]
  binding signal (z-score (mean of top ten 7-mers)): 7.45

## UUAUU [RNAcompete motif RNCMPT00218]
[14]
  binding signal (z-score (mean of top ten 7-mers)): 7.15

## UUUUUU [RNAcompete motif RNCMPT00202]
[15]
  binding signal (z-score (mean of top ten 7-mers)): 6.28

## UUUUUU [RNAcompete motif RNCMPT00228]
[16]
  binding signal (z-score (mean of top ten 7-mers)): 12.9
